Assay results reported in patent publication CN1934266A (LILLY CO ELI, dated 2007).

T1: BMP-5 (R&D Systems 615-BM) (UniProt P22003 317-454, limits assumed)
T1 sequence (looked up): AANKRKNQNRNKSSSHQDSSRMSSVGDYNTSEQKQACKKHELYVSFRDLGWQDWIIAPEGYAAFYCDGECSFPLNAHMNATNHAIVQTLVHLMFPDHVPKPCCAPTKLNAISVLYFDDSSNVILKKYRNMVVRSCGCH

T2: TGF-b2 (Peprotech 100-35) (UniProt P61812 303-414)
T2 construct: also called TGF-β2
T2 sequence (looked up): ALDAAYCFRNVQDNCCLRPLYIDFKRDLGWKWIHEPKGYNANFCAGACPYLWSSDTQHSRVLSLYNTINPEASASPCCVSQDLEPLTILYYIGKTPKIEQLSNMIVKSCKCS

T3: BMP-6 (R&D Systems 507-BP) (UniProt P22004 382-513, limits assumed)
T3 sequence (looked up): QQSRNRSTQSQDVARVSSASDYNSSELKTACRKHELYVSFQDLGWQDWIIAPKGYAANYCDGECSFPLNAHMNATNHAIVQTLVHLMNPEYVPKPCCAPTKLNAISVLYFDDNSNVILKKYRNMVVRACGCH

T4: 激活蛋白A (R&D Systems 338-AC) (UniProt P08476 311-426)
T4 construct: also called activin A
T4 sequence (looked up): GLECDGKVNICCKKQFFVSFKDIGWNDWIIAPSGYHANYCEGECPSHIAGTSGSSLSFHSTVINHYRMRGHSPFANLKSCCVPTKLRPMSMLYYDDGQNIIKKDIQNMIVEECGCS

T5: 重组人GDF-11(Peprotech公司，目录号120-11) (human, UniProt O95390 299-407)
T5 sequence (looked up): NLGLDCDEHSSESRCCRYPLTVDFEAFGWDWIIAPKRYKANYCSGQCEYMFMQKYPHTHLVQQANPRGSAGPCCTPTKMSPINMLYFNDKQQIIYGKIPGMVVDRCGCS

T6: 激活蛋白B (R&D Systems 659-AB) (UniProt P09529 293-407)
T6 construct: also called activin B
T6 sequence (looked up): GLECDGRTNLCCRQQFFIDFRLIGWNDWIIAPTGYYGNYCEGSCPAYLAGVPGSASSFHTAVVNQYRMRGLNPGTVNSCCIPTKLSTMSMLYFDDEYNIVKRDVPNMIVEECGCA

T7: BMP-7 (R&D Systems 354-BP) (UniProt P18075 293-431)
T7 sequence (looked up): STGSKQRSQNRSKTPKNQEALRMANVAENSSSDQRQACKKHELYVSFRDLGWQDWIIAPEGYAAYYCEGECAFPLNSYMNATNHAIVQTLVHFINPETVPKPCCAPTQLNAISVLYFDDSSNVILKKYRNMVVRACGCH


How the values were obtained:
Experiment in all cases: ELISA, growth factor coated at 10 μg/ml, antibody at 10 μg/ml, mean of duplicates
[1] = biological target: T1, BMP-5 (R&D Systems 615-BM)
[2] = biological target: T2, TGF-b2 (Peprotech 100-35)
[3] = biological target: IGF-1 (R&D Systems 291-G1) (UniProt P05019 49-118)
IGF-1 (R&D Systems 291-G1), sequence (P05019 49-118 limits assumed): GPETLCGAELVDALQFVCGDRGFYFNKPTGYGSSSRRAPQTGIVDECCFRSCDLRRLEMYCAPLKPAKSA

[4] = biological target: T3, BMP-6 (R&D Systems 507-BP)
[5] = biological target: T8, TGF-a (R&D Systems 239-A) (UniProt P01135 40-89)
T8 construct: also called TGF-α
T8 sequence (P01135 40-89 limits assumed): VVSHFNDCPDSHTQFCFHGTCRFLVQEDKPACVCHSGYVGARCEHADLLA

[6] = biological target: T9, TGF-b1 (Peprotech 100-21R) (UniProt P01137 279-390)
T9 construct: also called TGF-β1
T9 sequence (P01137 279-390 limits assumed): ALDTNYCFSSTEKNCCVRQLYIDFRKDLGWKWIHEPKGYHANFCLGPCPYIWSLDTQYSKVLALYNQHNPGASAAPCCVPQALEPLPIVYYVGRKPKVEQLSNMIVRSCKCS

[7] = biological target: T4, 激活蛋白A (R&D Systems 338-AC)
[8] = biological target: T5, 重组人GDF-11(Peprotech公司，目录号120-11)
[9] = biological target: T6, 激活蛋白B (R&D Systems 659-AB)
[10] = biological target: BMP-2 (R&D Systems 355-BEC/CF) (UniProt P12643 283-396)
BMP-2 (R&D Systems 355-BEC/CF), sequence (P12643 283-396 limits assumed): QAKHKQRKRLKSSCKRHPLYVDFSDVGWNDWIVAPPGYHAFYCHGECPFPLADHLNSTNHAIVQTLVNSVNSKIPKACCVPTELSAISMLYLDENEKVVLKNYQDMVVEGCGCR

[11] = biological target: T7, BMP-7 (R&D Systems 354-BP)

| Binder | 平均吸光度 (OD 490 nm) [1] | 平均吸光度 (OD 490 nm) [2] | 平均吸光度 (OD 490 nm) [3] | 平均吸光度 (OD 490 nm) [4] | 平均吸光度 (OD 490 nm) [5] | 平均吸光度 (OD 490 nm) [6] | 平均吸光度 (OD 490 nm) [7] | 平均吸光度 (OD 490 nm) [8] | 平均吸光度 (OD 490 nm) [9] | 平均吸光度 (OD 490 nm) [10] | 平均吸光度 (OD 490 nm) [11] |
| --- | --- | --- | --- | --- | --- | --- | --- | --- | --- | --- | --- |
| 抗肌肉生长抑素Fab 3 (Fab, V domains shown) VH: QVTLKESGPGILQSSQTLSLTCSLSGFSLRTSGMSVSWIRQSSGKGLEWLAHIYWDDDKRYNPSLRNRLTISKDTLRNQVFLKITSVGTADTATYYCARRAITTVIGGGTMDYWGQGTSVTVSS VL: QIVLTQSPAIMSASPGEKVTMTCSASSSISYMHWYQQKPGTSPKRWIYDTSKLASGVPARFSGSGSGTSYSLTISSMEAEDAATYYCQQWYSNPLTFGAGTKLELKR | 0.034 OD 490 nm | 0.034 OD 490 nm | 0.034 OD 490 nm | 0.0335 OD 490 nm | 0.033 OD 490 nm | 0.034 OD 490 nm | 0.033 OD 490 nm | 0.0705 OD 490 nm | 0.032 OD 490 nm | 0.0345 OD 490 nm | 0.033 OD 490 nm |
| 抗肌肉生长抑素Fab 5 (Fab, V domains shown) VH: QVTLKESGPGILQSSQTLSLTCSFSGFSLSTSGMSVSWIRQSSGKGLEWLAHIYWDDDKRYNPSLRSRLTISKDTSRNQVFLKITSVDTADTATYYCARRGITTVLGGGTMDYWGQGTSVTVSS VL: QVVLTQSPAIMSASLGEKVTMTCSASSSVHYMHWYQQKSGTSPKRWIYDTSKLASGVPARFSGSGSGTSYSLTISSMEAEDAATYYCQQWSSNPLTFGAGTKLELKR | 0.033 OD 490 nm | 0.034 OD 490 nm | 0.035 OD 490 nm | 0.0325 OD 490 nm | 0.033 OD 490 nm | 0.0325 OD 490 nm | 0.033 OD 490 nm | 0.034 OD 490 nm | 0.033 OD 490 nm | 0.032 OD 490 nm | 0.032 OD 490 nm |
| 抗肌肉生长抑素Fab 7 (Fab, V domains shown) VH: QVTLKSGPGILQSSQTLTLTCSLSGFSLTTSGMIVSWIRQSSGRGLEWLAHIYWDDDKRYNPSLRNRLTISKDTLRNQVFLWISSVGTADTATYYCARRAITTVIGGGTMDYWGQGTSVTVSS VL: QIVLTQSPAIMSASPGEKVTMTCSASSSISYMHWYQQKPGTSPKRWIYDTSKLASGVPARFSGSGSGTSYSLTISSMEAEDAATYYCQQWYSNPLTFGAGTKLELKR | 0.0345 OD 490 nm | 0.0345 OD 490 nm | 0.034 OD 490 nm | 0.035 OD 490 nm | 0.0315 OD 490 nm | 0.032 OD 490 nm | 0.0325 OD 490 nm | 0.04 OD 490 nm | 0.031 OD 490 nm | 0.0335 OD 490 nm | 0.031 OD 490 nm |
